The source of these data is US20200181261A1 (Bayer, published 2020).

Usually Kd stands for a measure of binding affinity in units of concentration. The low end stands for a tighter complex, the high end for a looser complex. The term EC50 denotes the midpoint of the concentration-response curve. Low values mean higher potency in that assay, high ones lower potency in that assay.

Assay [1] has as its target T1, human CEACAM1, extracellular (mature form), R&D Systems 2244-CM (human, UniProt P13688 35-428).
T1 construct: used biotinylated in some assays; also called TPP-1437; hC1
T1 sequence: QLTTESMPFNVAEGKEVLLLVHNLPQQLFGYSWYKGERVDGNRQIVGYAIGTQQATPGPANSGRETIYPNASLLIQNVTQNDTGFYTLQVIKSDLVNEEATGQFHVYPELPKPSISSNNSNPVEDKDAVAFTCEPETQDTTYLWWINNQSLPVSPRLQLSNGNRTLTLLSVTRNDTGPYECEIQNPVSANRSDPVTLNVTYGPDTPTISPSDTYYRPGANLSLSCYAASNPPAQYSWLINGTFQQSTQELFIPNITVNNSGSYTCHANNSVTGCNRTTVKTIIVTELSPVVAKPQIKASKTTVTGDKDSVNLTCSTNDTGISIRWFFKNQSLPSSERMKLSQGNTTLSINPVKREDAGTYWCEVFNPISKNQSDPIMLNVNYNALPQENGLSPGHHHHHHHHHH
The assay is described as follows: SPR, antibody captured, antigen as analyte. In general terms: Surface plasmon resonance follows binding to a sensor surface in real time, without labels.

Assay [2] has as its target T2, Human CEACAM6-Domain 1-His (expressed in E. coli), wild-type (human).
T2 construct: entry includes the His tag; also called hDOM1
T2 chain: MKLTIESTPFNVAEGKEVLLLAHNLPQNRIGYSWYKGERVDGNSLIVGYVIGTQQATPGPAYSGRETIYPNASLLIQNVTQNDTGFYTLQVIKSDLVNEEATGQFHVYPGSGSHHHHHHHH
Description: SPR, antibody captured, antigen as analyte. As to the method:
(§1) Surface plasmon resonance (SPR) experiments for quantitative binding analyses were performed either using a Biacore T100, Biacore T200 or a Biacore 4000 instrument (GE Healthcare Biacore, Inc.) equipped with Series S Sensor Chips CM5 (GE Healthcare Biacore, Inc.). Binding assays were carried out at 25° C. with assay buffer HBS-EP+(10 mM HEPES pH 7.4, 150 mM NaCl, 3 mM EDTA, 0.05% Surfactant P20). Antibodies were captured with an anti-hIgG capture antibody covalently immobilized to the chip surface via amine coupling chemistry. Reagents for amine coupling (1-ethyl-3-(3-dimethylaminopropyl) carbodiimide hydrochloride (EDC), N-hydroxysuccinimide (NHS), ethanolamine-HCl pH 8.5) were used from the Amine Coupling Kit (GE Healthcare, product code BR-1000-50). Anti-hIgG, anti-mIgG capture antibodies and immobilization buffer (10 mM sodium acetate pH 5.0) were used from the Human Antibody Capture Kit (GE Healthcare, BR-1008-39) and the Mouse Antibody Capture Kit (GE Healthcare, BR-1008-38), respectively. The sensor chip surface was activated with a freshly prepared solution of 0.2 M EDC and 0.05 M NHS passed over the chip surface for 420 s at a flow rate of 10 μl/min, followed by an injection of anti-hIgG or anti-mIgG capture antibody (dissolved to 25 μg/ml in immobilization buffer) for 180 s at a flow rate of […]. Excess of activated groups were blocked with a 1 molar solution of ethanolamine injected at a flow rate of 10 μl/min for 420 s.
(§2) CEACAM antigens were used as analyte to determine KD values. Antibodies were captured for 20 s at a flow rate of 10 μl/min prior to each analyte injection.

Assay [3] addresses T3, Macaca fascicularis CEACAM6-Domain 1-His (expressed in E. coli) (Macaca fascicularis).
T3 construct: entry includes the His tag; also called TPP-2453; Recombinant single domain 1 of Macaca fascicularis CEACAM6
T3 chain: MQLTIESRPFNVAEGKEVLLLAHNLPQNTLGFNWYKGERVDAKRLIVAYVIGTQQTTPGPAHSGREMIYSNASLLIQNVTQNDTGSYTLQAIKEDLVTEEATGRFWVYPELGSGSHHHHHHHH
Description: SPR, antibody captured, antigen as analyte. As to the method:
as §1, §2

In assay [4] the target is T4, human CEACAM19, full-length, on transfected HeLa cells (human, UniProt Q7Z692 33-300).
T4 construct: also called TPP-4186; HeLa human CEACAM19
T4 sequence: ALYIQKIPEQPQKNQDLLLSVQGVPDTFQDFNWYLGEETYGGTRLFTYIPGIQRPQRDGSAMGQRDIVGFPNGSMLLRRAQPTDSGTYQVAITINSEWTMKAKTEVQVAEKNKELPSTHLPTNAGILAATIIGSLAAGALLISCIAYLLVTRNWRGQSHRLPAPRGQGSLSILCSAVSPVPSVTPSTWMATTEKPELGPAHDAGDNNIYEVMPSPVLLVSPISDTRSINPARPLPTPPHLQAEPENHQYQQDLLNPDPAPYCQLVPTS
Description: FACS, transfected HeLa cells. A digest of the protocol: (§3)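 Antibody binding to transfected HeLa cells was measured by FACS on a Canto II or FACS Array instrument. For half maximal binding (EC₅₀), primary antibodies were titrated from 0.1 nM to 100 nM. Median fluorescence intensity was plotted against log concentration, and curves were fitted in Graph Pad prism. Cells had been released with EDTA dissociation buffer and stained at 4° C.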
In general terms: Flow cytometry measures light scatter and fluorescence of single cells or particles in a stream.

Assay [5] has as its target T5, human CEACAM6, full-length, on cells (human, UniProt P40199 35-320).
T5 construct: used both for transfected HeLa cells and for tumor cell lines that express CEACAM6 endogenously; also called TPP-4639; HeLa human CEACAM6
T5 sequence: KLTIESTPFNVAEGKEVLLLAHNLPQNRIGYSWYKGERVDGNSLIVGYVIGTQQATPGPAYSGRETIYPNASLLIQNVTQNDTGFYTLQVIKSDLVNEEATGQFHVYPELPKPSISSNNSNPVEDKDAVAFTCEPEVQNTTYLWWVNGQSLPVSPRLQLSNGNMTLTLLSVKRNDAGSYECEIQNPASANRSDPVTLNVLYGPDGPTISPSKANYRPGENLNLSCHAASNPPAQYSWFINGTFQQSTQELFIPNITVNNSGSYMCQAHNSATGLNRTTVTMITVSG
Description: FACS, transfected HeLa cells. In a few lines: as §3

B1: TPP-3714 (antibody, human IgG2, kappa)
heavy: QVTLRESGPALVKPTQTLTLTCTFSGFSLSTYGIGVGWIRQPPGKALEWLAHIWWNDNKYYSTSLKTRLTISKDTSKNQVVLTMTNMDPVDTATYYCARISLPYFDYWGQGTLVTVSSASTKGPSVFPLAPCSRSTSESTAALGCLVKDYFPEPVTVSWNSGALTSGVHTFPAVLQSSGLYSLSSVVTVPSSNFGTQTYTCNVDHKPSNTKVDKTVERKCCVECPPCPAPPVAGPSVFLFPPKPKDTLMISRTPEVTCVVVDVSHEDPEVQFNWYVDGVEVHNAKTKPREEQFNSTFRVVSVLTVVHQDWLNGKEYKCKVSNKGLPAPIEKTISKTKGQPREPQVYTLPPSREEMTKNQVSLTCLVKGFYPSDIAVEWESNGQPENNYKTTPPMLDSDGSFFLYSKLTVDKSRWQQGNVFSCSVMHEALHNHYTQKSLSLSPG
light: DIQLTQSPSFLSASVGDRVTITCKASQNVGTAVAWYQQKPGKAPKLLIYSASNRYTGVPSRFSGSGSGTEFTLTISSLQPEDFATYYCQQYSSYPLTFGGGTKVEIKRTVAAPSVFIFPPSDEQLKSGTASVVCLLNNFYPREAKVQWKVDNALQSGNSQESVTEQDSKDSTYSLSSTLTLSKADYEKHKVYACEVTHQGLSSPVTKSFNRGEC
notes: humanized from TPP-2971, human IgG2; also called TPP-2971HU2-hIgG2Kappa
On to B1, for which the binding result in assay [1] is on record as “no binding (tested: 200 nM)”; in assay [4] it was “no binding (tested: 5 µg/ml)”. Besides, the dissociation constant Kd in assay [2] was determined as 3.7 nM; in assay [3], 3.2 nM. In assay [5], this molecule showed a concentration giving a half-maximal response (EC50) of 1 nM.

B2: TPP-3820 (antibody, human IgG2, kappa, V domains shown)
VH: QVTLRESGPALVKPTQTLTLTCTFSGFSLTTYGIGVGWIRQPPGKGLEWLAHIWWNDNKYYSTSLKTRLTISKDTSKNQVVLTMTNMDPVDTATYYCARISLPYFDYWGQGTLVTVSS
VL: DIQLTQSPSFLSASVGDRVTITCKASQNVGTAVAWYQQKPGKAPKLLIYSASNRYTGVPSRFSGSGSGTEFTLTISSLQPEDFATYYCQQYNNYPLTFGGGTKVEIKR
notes: humanized from TPP-3187, human IgG2; also called 3187HU1-hIgG2Kappa
For the molecule B2, the binding result is reported as “no binding (tested: 200 nM)” in assay [1] and “no binding (tested: 5 µg/ml)” in assay [4]. Moreover, the dissociation constant Kd in assay [2] came to 5.1 nM; in assay [3], 5.2 nM. The molecule further had an EC50 in assay [5] of 1 nM.
